How the values were obtained:
GFP reporter gene = assay: Maltose / aspartate induction of Tar HK fusions, GFP reporter gene fluorescence, FACS screen; assay type: cell-based, E. coli; details: for maltose inducibility: maltose via MBP
[1] = cited from earlier work
[2] = system: plant pho promoter: luciferase reporter gene; assay: Luciferase reporter in transgenic Arabidopsis, circuit RBP→TrzPhoR→PhoBVP64, exposure to ribose; assay type: in vivo; details: 0 hours vs 24 hours after exposure to ribose
Method: FIG. 9A and FIG. 9B. Imaging of a luciferase gene reporter in transgenic Arabidopsis with the signaling circuit Ribose Binding Protein (RBP)→TrzPhoR→PhoBVP64 activating a plant pho promoter: luciferase reporter gene FIG. 9A. Four transgenic Arabidopsis lines at 0 hours (no exposure to ribose) top panel and 24 hours after exposure to ribose bottom panel. FIG. 9B. Quantification of luciferase activity from FIG. 9A.
Because the ground state of a histidine kinase is such that the kinase is active, “kinase on” and the predominate signaling phenotype seen in non-functional fusions is “kinase on,” the inventors reasoned that the valine at the D position is essential in maintaining the “kinase off” state in the absence of ligand dependent signaling. Fusions where the D position valine is replaced by alanine, glycine (the two hydrophobic amino acids smaller than valine) or a methionine (the D position residue of PhoR) results in constitutive activation (FIG. 8). E. coli has 10 HKs, including EnvZ, with HAMP domains adjacent to the HK coiled coil (FIG. 8). EnvZ is the only HK with a valine in the A/D position. There are 4 other amino acids, glutamate, isoleucine, leucine and threonine that occupy the A/D position in the 9 other E. coli HKs with a HAMP/HK coiled coil A/D overlap. […]

[3] = system: PhoB responsive promoter driving a β-galactosidase reporter gene; details: E. coli BW23423; maltose control vs ribose; X-Gal; functional = off without ligand, on with ligand
[4] = system: PhoB responsive promoter driving a β-galactosidase reporter gene; assay type: cell-based, E. coli

B1: TazPhoR 61: Maltose inducible directed evolution variant of TazPhoR, SEQ ID NO:18 (protein)
chain: MKLLSKTFLILTLTFFFFGIALAKMINRIRVVTLLVMVLGVFALLQLISGSLFFSSLHHSQKSFVVSNQLREQQGELTSTWDLMLQTRINLSRSAVRMMMDSSNQQSNAKVELLDSARKTLAQAATHYKKFKSMAPLPEMVATSRNIDEKYKNYYTALTELIDYLDYGNTGAYFAQPTQGMQNAMGEAFAQYALSSEKLYRDIVTDNADDYRFAQWQLAVIALVVVLILLVAWYGIRRMLLTPLAKIIAHIREIAGGNLANTLTIDGRSEMGDLAQSVSHMAAGVKQLRRNFFANVSHELRTPLTVLQGYLEMMNEQPLEGAVREKALHTMREQTQRMEGLVKQLLTLSKIEAAPTHLLNEKVDVPMMLRVVEREAQTLSQKKQTFTFEIDNGLKVSGNEDQLRSAISNLVYNAVNHTPEGTHITVRWQRVPHGAEFSVEDNGPGIAPEHIPRLTERFYRVDKARSRQTGGSGLGLAIVKHAVNHHESRLNIESTVGKGTRFSFVIPERLIAKNSD
modifications: Fusion protein
- maltose inducibility (GFP reporter gene): Maltose inducible

B2: Taz: Tar chemotactic receptor fused to EnvZ histidine kinase at conserved HAMP domain, SEQ ID NO:38 (protein)
chain: MINRIRVVTLLVMVLGVFALLQLISGSLFFSSLHHSQKSFVVSNQLREQQGELTSTWDLMLQTRINLSRSAVRMMMDSSNQQSNAKVELLDSARKTLAQAATHYKKFKSMAPLPEMVATSRNIDEKYKNYYTALTELIDYLDYGNTGAYFAQPTQGMQNAMGERFAQYALSSEKLYRDIVTDNADDYRFAQWQLAVIALVVVLILLVAWYGIRRMLLTPLAKIIAHIREIAGGNLANTLTIDGRSEMGDLAQSVSHMAAGVKQLADDRTLLMAGVSHDLRTPLTRIRLATEMMSEQDGYLAESINKDIEECNAIIEQFIDYLRTGQEMPMEMADLNAVLGEVIAAESGYEREIETALYPGSIEVKMHPLSIKRAVANMVVNAARYGNGWIKVSSGTEPNRAWFQVEDDGPGIAPEQRKHLFQPFVRGDSARTISGTGLGLAIVQRIVDNHNGMLELGTSERGGLSIRAWLPVPVTRAQGTTKEG
modifications: Fusion protein
- induction by aspartate ([1]; aspartate): retains the ability to be induced by aspartate
- response to maltose ([1]; maltose): no longer shows a response to maltose

B3: TrzPhoR: coiled coil based fusion of Trz (Trg chemotactic receptor/EnvZ histidine kinase fusion) to PhoR histidine kinase, SEQ ID NO:2 (protein)
chain: MNTTPSQRLGFLHHIRLVPLFACILGGILVLFALSSALAGYFLWQADRDQRDVTAEIEIRTGLANSSDFLRSARINMIQAGAASRIAEMEAMKRNIAQAESEIKQSQQGYRAYQNRPVKTPADEALDTELNQRFQAYITGMQPMLKYAKNGMFEAIINHESEQIRPLDNAYTDILNKAVKIRSTRANQLAELAHQRTRLGGMFMIGAFVLALVMTLITFMVLRRIVIRPLQHAAQRIEKIASGDLTMNDEPAGRNEIGRLSRHLQHMAAGVKQLEGARRNFFANVSHELRTPLTVLQGYLEMMNEQPLEGAVREKALHTMREQTQRMEGLVKQLLTLSKIEAAPTHLLNEKVDVPMMLRVVEREAQTLSQKKQTFTFEIDNGLKVSGNEDQLRSAISNLVYNAVNHTPEGTHITVRWQRVPHGAEFSVEDNGPGIAPEHIPRLTERFYRVDKARSRQTGGSGLGLAIVKHAVNHHESRLNIESTVGKGTRFSFVIPERLIAKNSD
- function in the plant detector system (luciferase activity) [2]: highly functional
- signaling phenotype of the fusion (ribose inducible β-galactosidase activity) [3]: functional

B4: TazPhoR: TrzPhoR fusion with the Tar chemotactic receptor replacing the Trg chemotactic receptor, SEQ ID NO:16 (protein)
chain: MKLLSKTFLILTLTFFFFGIALAKMINRIRVVTLLVMVLGVFALLQLISGSLFFSSLHHSQKSFVVSNQLREQQGELTSTWDLMLQTRINLSRSAVRMMMDSSNQQSNAKVELLDSARKTLAQAATHYKKFKSMAPLPEMVATSRNIDEKYKNYYTALTELIDYLDYGNTGAYFAQPTQGMQNAMGEAFAQYALSSEKLYRDIVTDNADDYRFAQWQLAVIALVVVLILLVAWYGIRRMLLTPLAKIIAHIREIAGGNLANTLTIDGRSEMGDLAQSVSHMAAGVKQLEGARRNFFANVSHELRTPLTVLQGYLEMMNEQPLEGAVREKALHTMREQTQRMEGLVKQLLTLSKIEAAPTHLLNEKVDVPMMLRVVEREAQTLSQKKQTFTFEIDNGLKVSGNEDQLRSAISNLVYNAVNHTPEGTHITVRWQRVPHGAEFSVEDNGPGIAPEHIPRLTERFYRVDKARSRQTGGSGLGLAIVKHAVNHHESRLNIESTVGKGTRFSFVIPERLIAKNSD
modifications: Fusion protein
- aspartate inducibility (GFP reporter gene): aspartate inducibility of both fusions was observed
- maltose inducibility (GFP reporter gene): no maltose inducibility

B5: TazPhoR 86: Maltose inducible directed evolution variant of TazPhoR, SEQ ID NO:20 (protein)
chain: MKLLSKTFLILTLTFFFFGIALAKMINRIRVVTLLVMVLGVFALLQLISGSLFFSSLHHSQKSFVVSNQLREQQGELTSTWDLMLQTRINLSRSAVRMMMDSSNQQSNAKVELLDSARKTLAQAATHYKKFKSMAPLPEMVATSRNIDEKYKNYYTALTELIDYLDYGNTGAYFAQPTQGMQNAMGEAFAQYALSSEKLYRDIVTDNADDYRFAQWQLAVIALVVVLILLVAWYGIRRMLLTPLAKIIAHIREIAGGNLANTLTIDGRSEMGDLAQSVSHMAAGVKQLRVWRRNFFANVSHELRTPLTVLQGYLEMMNEQPLEGAVREKALHTMREQTQRMEGLVKQLLTLSKIEAAPTHLLNEKVDVPMMLRVVEREAQTLSQKKQTFTFEIDNGLKVSGNEDQLRSAISNLVYNAVNHTPEGTHITVRWQRVPHGAEFSVEDNGPGIAPEHIPRLTERFYRVDKARSRQTGGSGLGLAIVKHAVNHHESRLNIESTVGKGTRFSFVIPERLIAKNSD
modifications: Fusion protein
- maltose inducibility (GFP reporter gene): Maltose inducible

B6: Tac8: TrzChim3-8 with the chemotactic receptor Tar replacing the chemotactic receptor Trg, SEQ ID NO:22 (protein)
chain: MINRIRVVTLLVMVLGVFALLQLISGSLFFSSLHHSQKSFVVSNQLREQQGELTSTWDLMLQTRINLSRSAVRMMMDSSNQQSNAKVELLDSARKTLAQAATHYKKFKSMAPLPEMVATSRNIDEKYKNYYTALTELIDYLDYGNTGAYFAQPTQGMQNAMGERFAQYALSSEKLYRDIVTDNADDYRFAQWQLAVIALVVVLILLVAWYGIRRMLLTPLAKIIAHIREIAGGNLANTLTIDGRSEMGDLAQSVSHMAAGVKQLRGVRTLLMAGVSHDLRTPLTVLQGYLEMMNEQPLEGAVREKALHTMREQTQRMNAIIEQFIDYLRTGQEMPMEMADLNAVLGEVIAAESGYEREIETALYPGSIEVKMHPLSIKRAVANMVVNAARYGNGWIKVSSGTEPNRAWFQVEDDGPGIAPEQRKHLFQPFVRGDSARTISGTGLGLAIVQRIVDNHNGMLELGTSERGGLSIRAWLPVPVTRAQGTTKEG
modifications: Fusion protein
- aspartate inducibility (GFP reporter gene): aspartate inducibility of both fusions was observed
- maltose inducibility (GFP reporter gene): no maltose inducibility

B7: Tac40: Maltose inducible directed evolution variant of Tac8, SEQ ID NO:24 (protein)
chain: MINRIRVVTLLVMVLGVFALLQLISGSLFFSSLHHSQKSFVVSNQLREQQGELTSTWDLMLQTRINLSRSAVRMMMDSSNQQSNAKVELLDSARKTLAQAATHYKKFKSMAPLPEMVATSRNIDEKYKNYYTALTELIDYLDYGNTGAYFAQPTQGMQNAMGERFAQYALSSEKLYRDIVTDNADDYRFAQWQLAVIALVVVLILLVAWYGIRRMLLTPLAKIIAHIREIAGGNLANTLTIDGRSEMGDLAQSVSHMAAGVKQLVWRRTLLMAGVSHDLRTPLTVLQGYLEMMNEQPLEGAVREKALHTMREQTQRMNAIIEQFIDYLRTGQEMPMEMADLNAVLGEVIAAESGYEREIETALYPGSIEVKMHPLSIKRAVANMVVNAARYGNGWIKVSSGTEPNRAWFQVEDDGPGIAPEQRKHLFQPFVRGDSARTISGTGLGLAIVQRIVDNHNGMLELGTSERGGLSIRAWLPVPVTRAQGTTKEG
modifications: Fusion protein
- maltose inducibility (GFP reporter gene): Maltose inducible

B8: PhoQTrzPhoR: Mg^2+ responsive PhoQ receptor fused to TrzPhoR at the D position, SEQ ID NO:40 (protein)
chain: MPGRSKWYRRWRPRSLQARQLLAASLSLVAFLALAGYALDVAFADTAEKNLRERLKNYASAYAANIDFVRDGSLYIGGQPPDPRFDVPGGGLYVEVVRPDESWTSMSAEGPNIPHGRMLEPRQEEFIGPLEMTQIDGSLGQLYRYGLGVSYVEREHGGEIPYTIYVMEDARSMGAQLRVFRGAVWFYLGSAGVVLLVLQAFILQWSLRPLRRVINELTKVQRGEIQRMSEQHPRELEPLTDSINAFIESVKQLEGARRNFFANVSHELRTPLTVLQGYLEMMNEQPLEGAVREKALHTMREQTQRMEGLVKQLLTLSKIEAAPTHLLNEKVDVPMMLRVVEREAQTLSQKKQTFTFEIDNGLKVSGNEDQLRSAISNLVYNAVNHTPEGTHITVRWQRVPHGAEFSVEDNGPGIAPEHIPRLTERFYRVDKARSRQTGGSGLGLAIVKHAVNHHESRLNIESTVGKGTRFSFVIPERLIAKNSD
modifications: Fusion protein
- Mg^2+ signaling (β-galactosidase activity) [4]: increase in Mg^2+ signaling

— patent US11780902B1, “Receptor/histidine kinase fusion constructs and uses thereof” (priority 2018, dated 2023)
